Reference: IntAct's records for PubMed 17558407

B1: Protein fantom (Homo sapiens), Q68CZ1-2 (parent)
chain: MSGPTDETAGDLPVKDTGLNLFGMGGLQETSTTRTMKSRQAVSRVSREELEDRFLRLHDENILLKQHARKQEDKIKRMATKLIRLVNDKKRYERVGGGPKRLGRDVEMEEMIEQLQEKVHELEKQNETLKNRLISAKQQLQTQGYRQTPYNNVQSRINTGRRKANENAGLQECPRKGIKFQDADVAETPHPMFTKYGNSLLEEARGEIRNLENVIQSQRGQIEELEHLAEILKTQLRRKENEIELSLLQLREQQATDQRSNIRDNVEMIKLHKQLVEKSNALSAMEGKFIQLQEKQRTLRISHDALMANGDELNMQLKEQRLKCCSLEKQLHSMKFSERRIEELQDRINDLEKERELLKENYDKLYDSAFSAAHEEQWKLKEQQLKVQIAQLETALKSDLTDKTEILDRLKTERDQNEKLVQENRELQLQYLEQKQQLDELKKRIKLYNQENDINADELSEALLLIKAQKEQKNGDLSFLVKVDSEINKDLERSMRELQATHAETVQELEKTRNMLIMQHKINKDYQMEVEAVTRKMENLQQDYELKVEQYVHLLDIRAARIHKLEAQLKDIAYGTKQYKFKPEIMPDDSVDEFDETIHLERGENLFEIHINKVTFSSEVLQASGDKEPVTFCTYAFYDFELQTTPVVRGLHPEYNFTSQYLVHVNDLFLQYIQKNTITLEVHQAYSTEYETIAACQLKFHEILEKSGRIFCTASLIGTKGDIPNFGTVEYWFRLRVPMDQAIRLYRERAKALGYITSNFKGPEHMQSLSQQAPKTAQLSSTDSTDGNLNELHITIRCCNHLQSRASHLQPHPYVVYKFFDFADHDTAIIPSSNDPQFDDHMYFPVPMNMDLDRYLKSESLSFYVFDDSDTQENIYIGKVNVPLISLAHDRCISGIFELTDHQKHPAGTIHVILKWKFAYLPPSGSITTEDLGNFIRSEEPEVVQRLPPASSVSTLVLAPRPKPRQRLTPVDKKVSFVDIMPHQSDVSQEGSVDEVKENTEKMQQGKDDVSLLSEGQLAEQSLASSEDETEITEDLEPEVEEDMSASDSDDCIIPGPISKNIKQPSEKIRIEIIALSLNDSQVTMDDTIQRLFVECRFYSLPAEETPVSLPKPKSGQWVYYNYSNVIYVDKENNKAKRDILKAILQKQEMPNRSLRFTVVSDPPEDEQDLECEDIGVAHVDLADMFQEGRDLIEQNIDVFDARADGEGIGKLRVTVEALHALQSVYKQYRDDLEA
partner: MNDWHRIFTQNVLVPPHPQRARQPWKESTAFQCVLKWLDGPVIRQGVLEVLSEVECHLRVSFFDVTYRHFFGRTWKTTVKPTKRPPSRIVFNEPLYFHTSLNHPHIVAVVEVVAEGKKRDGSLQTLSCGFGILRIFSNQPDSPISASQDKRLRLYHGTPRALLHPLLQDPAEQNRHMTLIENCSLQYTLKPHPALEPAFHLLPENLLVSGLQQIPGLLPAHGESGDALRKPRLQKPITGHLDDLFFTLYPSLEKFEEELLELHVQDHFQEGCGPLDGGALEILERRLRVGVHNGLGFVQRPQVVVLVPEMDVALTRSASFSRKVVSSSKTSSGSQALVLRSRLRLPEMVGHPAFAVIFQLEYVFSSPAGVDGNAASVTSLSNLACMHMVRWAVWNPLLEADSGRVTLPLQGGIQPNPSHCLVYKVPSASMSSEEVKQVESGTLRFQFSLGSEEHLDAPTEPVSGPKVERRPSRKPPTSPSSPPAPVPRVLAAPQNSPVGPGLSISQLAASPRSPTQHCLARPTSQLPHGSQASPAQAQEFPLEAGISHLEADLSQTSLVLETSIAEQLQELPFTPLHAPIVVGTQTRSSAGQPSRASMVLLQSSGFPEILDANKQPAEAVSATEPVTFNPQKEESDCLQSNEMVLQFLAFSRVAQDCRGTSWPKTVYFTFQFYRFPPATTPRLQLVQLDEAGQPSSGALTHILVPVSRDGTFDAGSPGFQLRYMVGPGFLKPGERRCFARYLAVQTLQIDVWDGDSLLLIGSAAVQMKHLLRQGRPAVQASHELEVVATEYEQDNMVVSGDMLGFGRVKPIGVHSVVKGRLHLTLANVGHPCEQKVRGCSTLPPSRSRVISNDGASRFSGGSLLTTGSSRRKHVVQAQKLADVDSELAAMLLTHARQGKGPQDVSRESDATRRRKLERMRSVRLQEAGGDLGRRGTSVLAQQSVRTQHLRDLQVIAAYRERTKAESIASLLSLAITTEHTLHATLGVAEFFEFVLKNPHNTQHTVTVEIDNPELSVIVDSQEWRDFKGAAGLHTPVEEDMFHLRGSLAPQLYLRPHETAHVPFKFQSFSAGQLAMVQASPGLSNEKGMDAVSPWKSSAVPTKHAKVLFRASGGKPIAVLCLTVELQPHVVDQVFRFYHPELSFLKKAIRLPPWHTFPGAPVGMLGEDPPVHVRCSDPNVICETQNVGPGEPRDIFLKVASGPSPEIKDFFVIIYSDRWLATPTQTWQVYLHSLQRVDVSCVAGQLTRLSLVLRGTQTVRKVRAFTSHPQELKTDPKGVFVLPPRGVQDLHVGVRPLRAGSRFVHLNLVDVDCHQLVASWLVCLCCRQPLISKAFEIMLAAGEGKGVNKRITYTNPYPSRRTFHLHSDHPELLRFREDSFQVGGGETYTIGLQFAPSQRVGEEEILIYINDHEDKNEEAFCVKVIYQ
B2: Nephrocystin-4 (Homo sapiens), O75161 (parent)
chain: B1 partner

Variants of: B1
Conditions: with nphp4_human NPHP4, O75161

Variant | effect of a mutation on the interaction
T615P | decreasing interaction

Variants of: B2
Conditions: with RPGRIP1L

Variant | effect of a mutation on the interaction
G754R | decreasing interaction
